The results in this text go back to patent publication US20190248902A1 (published 2019).

One experiment has as its target T1, Mouse ASGR-1 (mouse, UniProt P34927 1-284).
T1 construct: Expressed on HEK 293 cells or as membrane prep on beads; cDNA GenBank BC022106.1; also called muASGR-1; mASGR-1
T1 sequence: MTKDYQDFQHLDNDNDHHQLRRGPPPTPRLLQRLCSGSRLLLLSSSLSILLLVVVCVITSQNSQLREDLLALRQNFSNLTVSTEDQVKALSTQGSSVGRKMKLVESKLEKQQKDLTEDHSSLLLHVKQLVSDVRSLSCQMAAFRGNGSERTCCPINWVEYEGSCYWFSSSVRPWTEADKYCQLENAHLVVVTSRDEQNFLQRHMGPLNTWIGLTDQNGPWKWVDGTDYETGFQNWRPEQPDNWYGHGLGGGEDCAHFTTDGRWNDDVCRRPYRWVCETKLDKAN
As to the kind of experiment: FACS on transfected HEK 293 cells or membrane preps on beads; binding = signal at least 2x irrelevant IgG. The procedure, abridged: (§1)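 Antibodies at normalized concentrations bound 1 h at 4° C to HEK 293 cells expressing each antigen, then Alexa Fluor 647 anti-Fc plus 7-AAD 15 min at 4° C, flow cytometry; empty-vector cells as negative. Alternatively, species ASGR-1 membrane preps on streptavidin beads, antibody 1 h RT, Alexa Fluor 488 anti-Fc; FACS buffer with 1 mM CaCl2 throughout.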

The target in a further experiment is T2, Pig ASGR-1 (pig).
T2 construct: Expressed on HEK 293 cells or as membrane prep on beads; cDNA GenBank NM_001244458
T2 chain: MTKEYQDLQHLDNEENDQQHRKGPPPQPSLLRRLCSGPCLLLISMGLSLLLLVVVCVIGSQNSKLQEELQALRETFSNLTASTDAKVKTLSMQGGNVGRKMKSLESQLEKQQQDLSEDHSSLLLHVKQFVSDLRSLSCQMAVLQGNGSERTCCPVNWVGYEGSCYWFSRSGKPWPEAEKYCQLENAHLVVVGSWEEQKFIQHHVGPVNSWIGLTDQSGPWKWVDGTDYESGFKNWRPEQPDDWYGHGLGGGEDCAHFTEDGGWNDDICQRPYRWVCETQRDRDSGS
The experiment can be described thus: FACS on transfected HEK 293 cells or membrane preps on beads; Y = signal at least 2x irrelevant IgG. The procedure, abridged:
as §1

The target of the next experiment is T3, Cyno ASGR-1 (cynomolgus monkey, UniProt P07306 1-291 (human entry)).
T3 construct: Expressed on HEK 293 cells or as membrane prep on beads; cDNA from XP_005582755; also called cynomologus monkey ASGR-1
T3 chain: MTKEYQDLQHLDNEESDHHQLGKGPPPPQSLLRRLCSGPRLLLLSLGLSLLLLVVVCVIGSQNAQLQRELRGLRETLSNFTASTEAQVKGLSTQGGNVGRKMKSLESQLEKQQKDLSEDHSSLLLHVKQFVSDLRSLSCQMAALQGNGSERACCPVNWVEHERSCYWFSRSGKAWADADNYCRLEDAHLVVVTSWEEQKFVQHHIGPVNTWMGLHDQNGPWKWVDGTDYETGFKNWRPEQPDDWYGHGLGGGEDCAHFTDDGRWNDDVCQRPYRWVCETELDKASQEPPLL
Described as above. A digest of the protocol: as §1

B1: 56E5 (antibody, V domains shown)
VH: QVQLVQSGAEVKKPGASVKVSCQASGYTFTGYHMHWVRQAPGQGLEWMGWINPNNNATNYAQKFQGRVTMTRDTSISTAYMELRRLRSDDTAVYHCARDGTSSFDYWGQGTLVTVSS
VL: DIQMTQSPSSVSASVGDRVTITCRASQGIRKWLAWYQQKPGKAPKLLIYAASSLQSGVPSRFSGSGSGTDFTLTISSLQPEDFATYYCQQANSFPFTFGPGTKVDIK
notes: Tested as hybridoma supernatant at normalized concentration
On to B1, for which the binding result is recorded as “no binding” with Mouse ASGR-1, “binds” in the experiment with Pig ASGR-1 and “binds” in the experiment with Cyno ASGR-1.
